The record followed here is US20190381150.

The target of this series is Human lactoferrin (lactoferrin from human milk, Sigma) (UniProt P02788).
Sequence of Human lactoferrin (lactoferrin from human milk, Sigma) (P02788 20-710): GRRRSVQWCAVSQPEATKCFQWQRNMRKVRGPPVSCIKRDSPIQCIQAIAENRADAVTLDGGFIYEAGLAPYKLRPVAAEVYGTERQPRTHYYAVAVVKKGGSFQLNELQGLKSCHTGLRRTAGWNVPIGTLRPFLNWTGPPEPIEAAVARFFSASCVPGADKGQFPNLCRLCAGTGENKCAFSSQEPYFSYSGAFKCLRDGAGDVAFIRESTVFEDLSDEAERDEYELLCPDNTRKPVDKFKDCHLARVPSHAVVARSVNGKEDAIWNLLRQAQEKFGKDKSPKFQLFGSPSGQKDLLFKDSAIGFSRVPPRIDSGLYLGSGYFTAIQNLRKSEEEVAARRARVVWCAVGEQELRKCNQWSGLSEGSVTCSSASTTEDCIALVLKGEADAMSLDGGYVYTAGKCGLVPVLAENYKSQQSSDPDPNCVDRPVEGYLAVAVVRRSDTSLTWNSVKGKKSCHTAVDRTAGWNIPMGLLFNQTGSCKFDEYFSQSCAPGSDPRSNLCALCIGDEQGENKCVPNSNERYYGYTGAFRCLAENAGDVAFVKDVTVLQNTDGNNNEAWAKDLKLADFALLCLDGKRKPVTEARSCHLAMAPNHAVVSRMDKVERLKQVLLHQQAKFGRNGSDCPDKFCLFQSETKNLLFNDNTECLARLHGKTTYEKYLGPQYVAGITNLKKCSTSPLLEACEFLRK

As for “EndoBI-1 D184N (Asp 184 of EndoBI-1 mutated to Asn184), recombinant, signal sequence and transmembrane domains deleted”, the “shift in molecular weight on SDS-PAGE of human milk after overnight incubation” value is reported as “No change was observed when the milk sample was incubated with EndoBI-1 D184N”.
